# In patent publication US20240352133A1:
# Changes are numbered by the printed parent chain.
# B1: VRDN-03112 (antibody, V domains shown)
# VH: QVQLVESGGGVVQPGRSLRLSCAASGFTFSDYTMHWVRQAPGKGLEWVAIIWFDGSSKYYPGSVKGRFTISRDNSKNTLYLQMNSLRAEDTAVYYCARELGRRYFDIWGRGTLVTVSS
# VL: EIVMTQSPATLSVSPGERATLSCRASQGVSSYLAWYQQKPGQAPRLLIYGASTRATGIPARFSGSGSGTEFTLTISSLQSEDFAVYYCQQRSRWPPWTFGQGTKLEIK
# B2: VRDN-03114 (antibody, V domains shown)
# VH: B1 VH with Y32H, T33Y, H35D, P61V, G62D
# VL: B1 VL
# B3: VRDN-03113 (antibody, V domains shown)
# VH: B1 VH with Y32H, T33Y, H35D, P61A, G62D
# VL: B1 VL
# B4: VRDN-03047 (antibody, V domains shown)
# VH: QVELVESGGGVVQPGRSQRLSCAASGFTFSSYGMHWVRQAPGKGLEWVAIIWFDGSSTYYADSVRGRFTISRDNSKNTLYLQMNSLRAEDTAVYFCARELGRRYFDLWGRGTLVSVSS
# VL: EIVLTQSPATLSLSPGERATLSCRASQSVSSYHAWYQQKPGQAPRLLIYDASKRATGIPARFSGSGSGTDFTLTISSLEPEDFAVYYCQQRSKWPPWTFGQGTKVESK
# B5: VRDN-03100 (second entry of that label; VH and VL pair SEQ ID NO: 223) (antibody, V domains shown)
# VH: B1 VH with D31S, T33S
# VL: B1 VL with M4L, V13L, E70D, Q79E, S80P
# B6: VRDN-03110 (antibody, V domains shown)
# VH: B1 VH with P61A, G62D
# VL: B1 VL
# B7: VRDN-03049 (antibody, V domains shown)
# VH: B4 VH
# VL: B4 VL with H33L, D50H
# B8: VRDN-03106 (antibody, V domains shown)
# VH: B1 VH with Y32H, T33Y, H35D
# VL: B1 VL with M4L, V13L, E70D, Q79E, S80P
# B9: VRDN-03109 (antibody, V domains shown)
# VH: B1 VH with D31S, T33S
# VL: B1 VL
# B10: VRDN-03099 (antibody, V domains shown)
# VH: B1 VH with D31S, T33S, P61V, G62D
# VL: B1 VL with M4L, V13L, E70D, Q79E, S80P
# B11: VRDN-03053 (antibody, V domains shown)
# VH: B4 VH
# VL: B4 VL with H33L, R54H
# B12: VRDN-03105 (antibody, V domains shown)
# VH: B1 VH with Y32H, T33Y, H35D, P61V, G62D
# VL: B1 VL with M4L, V13L, E70D, Q79E, S80P
# B13: VRDN-03098 (antibody, V domains shown)
# VH: B1 VH with D31S, T33S, P61A, G62D
# VL: B1 VL with M4L, V13L, E70D, Q79E, S80P
# B14: VRDN-03054 (antibody, V domains shown)
# VH: B4 VH
# VL: B4 VL with H33L, A55H
# B15: VRDN-03051 (antibody, V domains shown)
# VH: B4 VH
# VL: B4 VL with H33L, S52H
# B16: VRDN-03102 (antibody, V domains shown)
# VH: B1 VH with P61V, G62D
# VL: B1 VL with M4L, V13L, E70D, Q79E, S80P
# B17: VRDN-03103 (antibody, V domains shown)
# VH: B1 VH
# VL: B1 VL with M4L, V13L, E70D, Q79E, S80P
# B18: VRDN-03055 (antibody, V domains shown)
# VH: B4 VH
# VL: B4 VL with H33L, T56H
# B19: VRDN-03107 (antibody, V domains shown)
# VH: B1 VH with D31S, T33S, P61A, G62D
# VL: B1 VL
# B20: VRDN-03101 (antibody, V domains shown)
# VH: B1 VH with P61A, G62D
# VL: B1 VL with M4L, V13L, E70D, Q79E, S80P
# B21: VRDN-03108 (antibody, V domains shown)
# VH: B1 VH with D31S, T33S, P61V, G62D
# VL: B1 VL
# B22: VRDN-03050 (antibody, V domains shown)
# VH: B4 VH
# VL: B4 VL with H33L, A51H
# B23: VRDN-03111 (antibody, V domains shown)
# VH: B1 VH with P61V, G62D
# VL: B1 VL
# B24: VRDN-03104 (antibody, V domains shown)
# VH: B1 VH with Y32H, T33Y, H35D, P61A, G62D
# VL: B1 VL with M4L, V13L, E70D, Q79E, S80P
# Experiments:
# [1] = target: Recombinant human his-tagged IGF 1R extracellular domain protein (human) (UniProt P08069); assay: SPR, captured antibody, dissociation at pH 6
# [2] = target: Recombinant human his-tagged IGF 1R extracellular domain protein (human) (UniProt P08069); assay: SPR, captured antibody, pH 7.4
binder,measurement,setting,value
B1,Kd,[1],2.74 nM
same,koff,[1],0.000463 s⁻¹
same,kon,[1],169000 M⁻¹ s⁻¹
same,Kd,[2],2.97 nM
same,koff,[2],0.000322 s⁻¹
same,kon,[2],109000 M⁻¹ s⁻¹
B2,Kd,[1],0.0565 nM
same,koff,[1],6.9e-06 s⁻¹
same,kon,[1],122000 M⁻¹ s⁻¹
same,Kd,[2],33.4 nM
same,koff,[2],0.000991 s⁻¹
same,kon,[2],29700 M⁻¹ s⁻¹
B3,Kd,[1],2.48 nM
same,koff,[1],0.00191 s⁻¹
same,kon,[1],771000 M⁻¹ s⁻¹
same,Kd,[2],2.76 nM
same,koff,[2],0.00388 s⁻¹
same,kon,[2],1.41e+06 M⁻¹ s⁻¹
B4,Kd,[1],3.77 nM
same,koff,[1],0.000294 s⁻¹
same,kon,[1],78100 M⁻¹ s⁻¹
same,Kd,[2],2.95 nM
same,koff,[2],0.000282 s⁻¹
same,kon,[2],95700 M⁻¹ s⁻¹
B5,Kd,[1],1.69 nM
same,koff,[1],0.00107 s⁻¹
same,kon,[1],630000 M⁻¹ s⁻¹
same,Kd,[2],5.52 nM
same,koff,[2],0.00134 s⁻¹
same,kon,[2],244000 M⁻¹ s⁻¹
B6,Kd,[1],1.7 nM
same,koff,[1],0.000378 s⁻¹
same,kon,[1],223000 M⁻¹ s⁻¹
same,Kd,[2],3.45 nM
same,koff,[2],0.000209 s⁻¹
same,kon,[2],60500 M⁻¹ s⁻¹
B7,Kd,[1],2.7 nM
same,koff,[1],0.000201 s⁻¹
same,kon,[1],74300 M⁻¹ s⁻¹
same,Kd,[2],1.56 nM
same,koff,[2],0.000183 s⁻¹
same,kon,[2],117000 M⁻¹ s⁻¹
B8,Kd,[1],1.81 nM
same,koff,[1],0.00218 s⁻¹
same,kon,[1],1.2e+06 M⁻¹ s⁻¹
same,Kd,[2],16.1 nM
same,koff,[2],0.00105 s⁻¹
same,kon,[2],65100 M⁻¹ s⁻¹
B9,Kd,[1],2.72 nM
same,koff,[1],0.00049 s⁻¹
same,kon,[1],180000 M⁻¹ s⁻¹
same,Kd,[2],6.74 nM
same,koff,[2],0.000286 s⁻¹
same,kon,[2],42500 M⁻¹ s⁻¹
B10,Kd,[1],1.34 nM
same,koff,[1],0.000296 s⁻¹
same,kon,[1],221000 M⁻¹ s⁻¹
same,Kd,[2],2.18 nM
same,koff,[2],0.000139 s⁻¹
same,kon,[2],63700 M⁻¹ s⁻¹
B11,Kd,[1],1.67 nM
same,koff,[1],0.00016 s⁻¹
same,kon,[1],95500 M⁻¹ s⁻¹
same,Kd,[2],1.79 nM
same,koff,[2],0.000188 s⁻¹
same,kon,[2],105000 M⁻¹ s⁻¹
B12,Kd,[1],1.99 nM
same,koff,[1],0.000281 s⁻¹
same,kon,[1],141000 M⁻¹ s⁻¹
same,Kd,[2],0.89 nM
same,koff,[2],0.000361 s⁻¹
same,kon,[2],405000 M⁻¹ s⁻¹
B13,Kd,[1],1.24 nM
same,koff,[1],0.000306 s⁻¹
same,kon,[1],247000 M⁻¹ s⁻¹
same,Kd,[2],2.05 nM
same,koff,[2],0.000135 s⁻¹
same,kon,[2],65900 M⁻¹ s⁻¹
B14,Kd,[1],0.866 nM
same,koff,[1],8.18e-05 s⁻¹
same,kon,[1],94500 M⁻¹ s⁻¹
same,Kd,[2],1.11 nM
same,koff,[2],0.000104 s⁻¹
same,kon,[2],93500 M⁻¹ s⁻¹
B15,Kd,[1],2.12 nM
same,koff,[1],0.000162 s⁻¹
same,kon,[1],76200 M⁻¹ s⁻¹
same,Kd,[2],1.86 nM
same,koff,[2],0.000203 s⁻¹
same,kon,[2],110000 M⁻¹ s⁻¹
B16,Kd,[1],1.46 nM
same,koff,[1],0.000319 s⁻¹
same,kon,[1],218000 M⁻¹ s⁻¹
same,Kd,[2],2.68 nM
same,koff,[2],0.000173 s⁻¹
same,kon,[2],64500 M⁻¹ s⁻¹
B17,Kd,[1],1.44 nM
same,koff,[1],0.00216 s⁻¹
same,kon,[1],1.5e+06 M⁻¹ s⁻¹
same,Kd,[2],12.8 nM
same,koff,[2],0.00637 s⁻¹
same,kon,[2],498000 M⁻¹ s⁻¹
B18,Kd,[1],1.61 nM
same,koff,[1],0.00014 s⁻¹
same,kon,[1],87000 M⁻¹ s⁻¹
same,Kd,[2],1.92 nM
same,koff,[2],0.000188 s⁻¹
same,kon,[2],97700 M⁻¹ s⁻¹
B19,Kd,[1],1.42 nM
same,koff,[1],0.000344 s⁻¹
same,kon,[1],242000 M⁻¹ s⁻¹
same,Kd,[2],2.69 nM
same,koff,[2],0.000156 s⁻¹
same,kon,[2],58000 M⁻¹ s⁻¹
B20,Kd,[1],1.23 nM
same,koff,[1],0.000268 s⁻¹
same,kon,[1],219000 M⁻¹ s⁻¹
same,Kd,[2],0.785 nM
same,koff,[2],7.02e-05 s⁻¹
same,kon,[2],89300 M⁻¹ s⁻¹
B21,Kd,[1],1.85 nM
same,koff,[1],0.000413 s⁻¹
same,kon,[1],224000 M⁻¹ s⁻¹
same,Kd,[2],3.97 nM
same,koff,[2],0.000195 s⁻¹
same,kon,[2],49000 M⁻¹ s⁻¹
B22,Kd,[1],2.25 nM
same,koff,[1],0.00017 s⁻¹
same,kon,[1],75800 M⁻¹ s⁻¹
same,Kd,[2],2.03 nM
same,koff,[2],0.00021 s⁻¹
same,kon,[2],103000 M⁻¹ s⁻¹
B23,Kd,[1],2.06 nM
same,koff,[1],0.000479 s⁻¹
same,kon,[1],233000 M⁻¹ s⁻¹
same,Kd,[2],4.71 nM
same,koff,[2],0.000362 s⁻¹
same,kon,[2],77000 M⁻¹ s⁻¹
B24,Kd,[1],1.63 nM
same,koff,[1],0.000283 s⁻¹
same,kon,[1],173000 M⁻¹ s⁻¹
same,Kd,[2],3.05 nM
same,koff,[2],0.000259 s⁻¹
same,kon,[2],85000 M⁻¹ s⁻¹
